Literature values in PMC5473928.
Values joined by “and” are separate entries in the source; they are usually repeats but may differ in a detail not shown here. Equal entries are not always repeated.

Molecular target: SOS allosteric site (Homo sapiens) (UniProt Q07889)

**Q.** For KRas (from UniProt P01116), which Kd is on record?
**A.** 3.6 µM and 10 µM
